According to US20230310603A1 (BEIJING NEUROSURGICAL INSTITUTE, published 2023):

T1: CD133 on CD44- and CD133-positive glioma stem cells GSC20 (UniProt O43490 20-865, limits assumed)
T1 sequence (looked up): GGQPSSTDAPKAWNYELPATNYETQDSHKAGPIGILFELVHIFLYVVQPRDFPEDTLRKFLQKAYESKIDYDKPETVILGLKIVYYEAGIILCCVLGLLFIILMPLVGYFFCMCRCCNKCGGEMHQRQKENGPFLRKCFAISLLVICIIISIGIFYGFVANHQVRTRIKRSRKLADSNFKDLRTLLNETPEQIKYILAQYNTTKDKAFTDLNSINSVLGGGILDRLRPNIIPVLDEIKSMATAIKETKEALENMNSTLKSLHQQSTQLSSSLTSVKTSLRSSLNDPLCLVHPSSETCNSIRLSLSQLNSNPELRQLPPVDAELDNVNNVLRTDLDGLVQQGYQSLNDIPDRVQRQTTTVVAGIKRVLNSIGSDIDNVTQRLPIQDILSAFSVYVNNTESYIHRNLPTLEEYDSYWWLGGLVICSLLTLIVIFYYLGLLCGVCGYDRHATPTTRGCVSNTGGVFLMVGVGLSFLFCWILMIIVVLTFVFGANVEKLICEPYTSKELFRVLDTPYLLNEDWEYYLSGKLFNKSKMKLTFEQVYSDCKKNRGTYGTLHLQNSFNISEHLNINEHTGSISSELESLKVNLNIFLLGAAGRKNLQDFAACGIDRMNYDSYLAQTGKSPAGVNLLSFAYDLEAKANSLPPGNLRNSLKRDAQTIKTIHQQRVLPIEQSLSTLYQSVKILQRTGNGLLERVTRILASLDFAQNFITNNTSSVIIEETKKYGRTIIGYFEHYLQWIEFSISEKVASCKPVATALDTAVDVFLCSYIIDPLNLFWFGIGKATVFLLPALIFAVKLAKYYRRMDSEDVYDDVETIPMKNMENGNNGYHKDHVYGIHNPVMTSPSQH


Biological target: T1, CD133 on CD44- and CD133-positive …
Assay: cell-based or functional assay

Binder	Lysis rate of glioma stem cells GSC20 by CAR-T cells (LDH release, 4 h), effect-target ratio 1:1 [%]	Lysis rate of glioma stem cells GSC20 by CAR-T cells (LDH release, 4 h), effect-target ratio 2:1 [%]	Lysis rate of glioma stem cells GSC20 by CAR-T cells (LDH release, 4 h), effect-target ratio 3:1 [%]	Lysis rate of glioma stem cells GSC20 by CAR-T cells (LDH release, 4 h), effect-target ratio 5:1 [%]
fusion protein shown in SEQ ID NO. 3 (anti-CD133 single-chain antibody, CD28, CD3), expressed on CAR-T 1 cells (other) QVQLVQSGAEVKKPGASVKVSCKASGYTFTDFEMHWVRQAPGQGLEWMGDIDPGTGDTAYNLKFKGRVTMTTDTSTSTAYMELRSLRSDDTAVYYCALGAFVYWGQGTLVTVSSGSTSGGGSGGGSGGGGSSDVVMTQSPLSLPVTPGEPASISCRSSQSLANSYGNTYLSWYLQKPGQSPQLLIYGISNRFSGVPDRFSGSGSGTDFTLKISRVEAEDVGVYYCLQGTHQPYTFGQGTKLEIKTTTPAPRPPTPAPTIASQPLSLRPEACRPAAGGAVHTRGLDFACDIYIWAPLAGTCGVLLLSLVITLYCRSKRSRLLHSDYMNMTPRRPGPTRKHYQPYAPPRDFAAYRSRVKFSRSADAPAYKQGQNQLYNELNLGRREEYDVLDKRRGRDPEMGGKPRRKNPQEGLYNELQKDKMAEAYSEIGMKGERRRGKGHDGLYQGLSTATKDTYDALHMQALPPR	6.53	26	33.5	41.4
fusion protein shown in SEQ ID NO. 4 (anti-CD133 single-chain antibody, CD28, truncated body of IL7Rα, CD3), expressed on CAR-T 2 cells (other) QVQLVQSGAEVKKPGASVKVSCKASGYTFTDFEMHWVRQAPGQGLEWMGDIDPGTGDTAYNLKFKGRVTMTTDTSTSTAYMELRSLRSDDTAVYYCALGAFVYWGQGTLVTVSSGSTSGGGSGGGSGGGGSSDVVMTQSPLSLPVTPGEPASISCRSSQSLANSYGNTYLSWYLQKPGQSPQLLIYGISNRFSGVPDRFSGSGSGTDFTLKISRVEAEDVGVYYCLQGTHQPYTFGQGTKLEIKTTTPAPRPPTPAPTIASQPLSLRPEACRPAAGGAVHTRGLDFACDIYIWAPLAGTCGVLLLSLVITLYCRSKRSRLLHSDYMNMTPRRPGPTRKHYQPYAPPRDFAAYRSKKRIKPIVWPSLPDHKKTLEHLCKKPRKNLNVSFNPESFLDCQIHRVDDIQARDEVEGFLQDTFPQQLEESEKQRLLGSNQEEAYVTMSSFYQNQRVKFSRSADAPAYKQGQNQLYNELNLGRREEYDVLDKRRGRDPEMGGKPRRKNPQEGLYNELQKDKMAEAYSEIGMKGERRRGKGHDGLYQGLSTATKDTYDALHMQALPPR	16.3	28	39.6	43.4

Other lines, results leading:

Lysis rate of glioma stem cells GSC20 by CAR-T cells (LDH release, 4 h), effect-target ratio 1:1 [%]	Lysis rate of glioma stem cells GSC20 by CAR-T cells (LDH release, 4 h), effect-target ratio 2:1 [%]	Lysis rate of glioma stem cells GSC20 by CAR-T cells (LDH release, 4 h), effect-target ratio 3:1 [%]	Lysis rate of glioma stem cells GSC20 by CAR-T cells (LDH release, 4 h), effect-target ratio 5:1 [%]	Binder
31.4	36.8	69.6	87.2	fusion protein shown in SEQ ID NO. 6 (anti-CD133 single-chain antibody, CD28, truncated body of IL7Rα, CD3, T2A, anti-TIM3 single-chain antibody), expressed in … (other) QVQLVQSGAEVKKPGASVKVSCKASGYTFTDFEMHWVRQAPGQGLEWMGDIDPGTGDTAYNLKFKGRVTMTTDTSTSTAYMELRSLRSDDTAVYYCALGAFVYWGQGTLVTVSSGSTSGGGSGGGSGGGGSSDVVMTQSPLSLPVTPGEPASISCRSSQSLANSYGNTYLSWYLQKPGQSPQLLIYGISNRFSGVPDRFSGSGSGTDFTLKISRVEAEDVGVYYCLQGTHQPYTFGQGTKLEIKTTTPAPRPPTPAPTIASQPLSLRPEACRPAAGGAVHTRGLDFACDIYIWAPLAGTCGVLLLSLVITLYCRSKRSRLLHSDYMNMTPRRPGPTRKHYQPYAPPRDFAAYRSKKRIKPIVWPSLPDHKKTLEHLCKKPRKNLNVSFNPESFLDCQIHRVDDIQARDEVEGFLQDTFPQQLEESEKQRLLGSNQEEAYVTMSSFYQNQRVKFSRSADAPAYKQGQNQLYNELNLGRREEYDVLDKRRGRDPEMGGKPRRKNPQEGLYNELQKDKMAEAYSEIGMKGERRRGKGHDGLYQGLSTATKDTYDALHMQALPPREGRGSLLTCGDVEENPGPMTNKCLLQIALLLCFSTTALSQVQLQQSGPGLVKPSHTLSLTCTVSGGSISSGGYYWSWTRQHPGMGLEWIGYISYSGSIYYTPSLKSRLTISVDTSKNQFSLKLSSVTAADTAVYYCASLDSWGSNRDYWGQGTLVTVSSGGGGSEIVLTQSPATLSLSPGERATLSCRASQSVSSYLAWYQQKPGQAPRLLIYDASNRATGIPARFSGSGSGTDFTLTISSLEPEDFAVYYCQQRSNWPLTFGGGTKVEIK
16.9	20.3	35.3	49.5	fusion protein shown in SEQ ID NO. 5 (anti-CD133 single-chain antibody, CD28, CD3, T2A, anti-TIM3 single-chain antibody), expressed in CAR-T 3 cells (other) QVQLVQSGAEVKKPGASVKVSCKASGYTFTDFEMHWVRQAPGQGLEWMGDIDPGTGDTAYNLKFKGRVTMTTDTSTSTAYMELRSLRSDDTAVYYCALGAFVYWGQGTLVTVSSGSTSGGGSGGGSGGGGSSDVVMTQSPLSLPVTPGEPASISCRSSQSLANSYGNTYLSWYLQKPGQSPQLLIYGISNRFSGVPDRFSGSGSGTDFTLKISRVEAEDVGVYYCLQGTHQPYTFGQGTKLEIKTTTPAPRPPTPAPTIASQPLSLRPEACRPAAGGAVHTRGLDFACDIYIWAPLAGTCGVLLLSLVITLYCRSKRSRLLHSDYMNMTPRRPGPTRKHYQPYAPPRDFAAYRSRVKFSRSADAPAYKQGQNQLYNELNLGRREEYDVLDKRRGRDPEMGGKPRRKNPQEGLYNELQKDKMAEAYSEIGMKGERRRGKGHDGLYQGLSTATKDTYDALHMQALPPREGRGSLLTCGDVEENPGPMTNKCLLQIALLLCFSTTALSQVQLQQSGPGLVKPSHTLSLTCTVSGGSISSGGYYWSWTRQHPGMGLEWIGYISYSGSIYYTPSLKSRLTISVDTSKNQFSLKLSSVTAADTAVYYCASLDSWGSNRDYWGQGTLVTVSSGGGGSEIVLTQSPATLSLSPGERATLSCRASQSVSSYLAWYQQKPGQAPRLLIYDASNRATGIPARFSGSGSGTDFTLTISSLEPEDFAVYYCQQRSNWPLTFGGGTKVEIK
